The assay concerns the target active IL-18 protein (human IL-18, positions 37 to 193), expressed and purified in E. coli (human) (UniProt Q14116). The experiment in a line: capillary western immunoassay (Wes), primary antibody at 1:25 dilution (16 μg/mL).
UniProt Q14116, sequence (Q14116 37-193 limits assumed): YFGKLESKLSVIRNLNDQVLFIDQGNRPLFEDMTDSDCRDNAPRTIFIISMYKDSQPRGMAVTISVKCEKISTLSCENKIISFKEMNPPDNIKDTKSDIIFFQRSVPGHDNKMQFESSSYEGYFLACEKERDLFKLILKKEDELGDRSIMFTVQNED

For the substance “commercially available anti-IL-18 antibody D043-3: clone 25-2G”, the concentration of IL-18 protein detectable is 100 ng/mL.
